Data published in the supplement of paper PMC9112550, “Optimization of the antimicrobial peptide Bac7 by deep mutational scanning” (BMC Biology, 2022).

System: Escherichia coli TOP10
Test: shrunken log2 fold change of peptide-encoding DNA abundance (4.5 h post-induction vs induction); higher = less antimicrobial activity (less host growth inhibition)
Conditions: time post-induction: 4.5 h; library: site-saturation at positions 5, 18, 19, 20
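Further: peptides expressed intracellularly from a pBAD plasmid library in pooled LB shake-flask culture, induced with 0.3% L-arabinose, DNA abundance read by NGS, three biological replicates, DESeq2 with apeglm shrinkage.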

Sequence | shrunken log2 fold change
RRIRERPPRLPRPRPRPNSPPRP | -0.00647
RRIRFRPPRLPRPRPRPYSSPRP | -0.571
RRIRQRPPRLPRPRPRPVWFPRP | 0.111
RRIRYRPPRLPRPRPRPMSDPRP | 0.0277
RRIRKRPPRLPRPRPRPAQGPRP | 1.39
RRIRQRPPRLPRPRPRPWGRPRP | 0.00592
RRIRRRPPRLPRPRPRPQRIPRP | -0.00231
RRIRQRPPRLPRPRPRPPQWPRP | 0.525
RRIRQRPPRLPRPRPRPGFIPRP | -0.408
RRIRGRPPRLPRPRPRPQSWPRP | 0.445
RRIRCRPPRLPRPRPRPRKHPRP | 0.0674
RRIRERPPRLPRPRPRPGEWPRP | 0.0118
RRIRWRPPRLPRPRPRPVAMPRP | 0.427
RRIRLRPPRLPRPRPRPICWPRP | -0.0336
RRIRVRPPRLPRPRPRPQLFPRP | 0.229
RRIRMRPPRLPRPRPRPLWQPRP | 0.304
RRIRFRPPRLPRPRPRPGKHPRP | -0.294
RRIRGRPPRLPRPRPRPIDRPRP | 0.127
RRIRDRPPRLPRPRPRPCKNPRP | 0.056
RRIRMRPPRLPRPRPRPSGHPRP | 0.0431
RRIRWRPPRLPRPRPRPPAAPRP | 0.913
RRIRDRPPRLPRPRPRPLRFPRP | 0.61
RRIRARPPRLPRPRPRPIIGPRP | -0.065
RRIRARPPRLPRPRPRPVMSPRP | 0.0513
RRIRLRPPRLPRPRPRPIWRPRP | 0.102

Sequence | shrunken log2 fold change
RRIRVRPPRLPRPRPRPDMCPRP | 0.0884
RRIRHRPPRLPRPRPRPKKPPRP | -0.125
RRIRRRPPRLPRPRPRPDWDPRP | -0.0829
RRIRDRPPRLPRPRPRPYQSPRP | -1.12
RRIRHRPPRLPRPRPRPQSGPRP | 0.165
RRIRMRPPRLPRPRPRPTSWPRP | 0.834
RRIRDRPPRLPRPRPRPHPGPRP | 0.163
RRIRRRPPRLPRPRPRPPITPRP | 0.13
RRIRKRPPRLPRPRPRPFPIPRP | -0.0405
RRIRTRPPRLPRPRPRPCEVPRP | 0.0427
RRIRHRPPRLPRPRPRPPHAPRP | 0.334
RRIRMRPPRLPRPRPRPWSTPRP | -0.144
RRIRMRPPRLPRPRPRPAGCPRP | 0.842
RRIRCRPPRLPRPRPRPDLWPRP | 0.134
RRIRGRPPRLPRPRPRPKRTPRP | 1.01
RRIRTRPPRLPRPRPRPIPPPRP | 0.384
RRIRKRPPRLPRPRPRPDNTPRP | -0.0368
RRIRSRPPRLPRPRPRPGGFPRP | 0.245
RRIRKRPPRLPRPRPRPDIMPRP | 1.57
RRIRRRPPRLPRPRPRPWRNPRP | 0.0985
RRIRYRPPRLPRPRPRPESIPRP | -0.42
RRIRYRPPRLPRPRPRPTLMPRP | -0.301
RRIRYRPPRLPRPRPRPRCRPRP | -0.26
RRIRWRPPRLPRPRPRPLHAPRP | 0.499
RRIRTRPPRLPRPRPRPTEWPRP | 0.0143

Sequence | shrunken log2 fold change
RRIRKRPPRLPRPRPRPFIEPRP | -0.205
RRIRLRPPRLPRPRPRPPDVPRP | -0.0115
RRIRVRPPRLPRPRPRPIYEPRP | -0.184
RRIRDRPPRLPRPRPRPMLFPRP | -0.0792
RRIRRRPPRLPRPRPRPYFEPRP | -0.562
RRIRKRPPRLPRPRPRPCQQPRP | -0.0287
RRIRCRPPRLPRPRPRPKCRPRP | -0.281
RRIRFRPPRLPRPRPRPQIYPRP | -1.01
RRIRIRPPRLPRPRPRPSEAPRP | -0.0351
RRIRERPPRLPRPRPRPNWDPRP | -0.125
RRIRHRPPRLPRPRPRPHVTPRP | -0.373
RRIRSRPPRLPRPRPRPMYGPRP | -0.844
RRIRARPPRLPRPRPRPERRPRP | 0.77
RRIRERPPRLPRPRPRPGKRPRP | 0.093
RRIRMRPPRLPRPRPRPYFDPRP | -1.09
RRIRPRPPRLPRPRPRPNHTPRP | -0.21
RRIRGRPPRLPRPRPRPRCAPRP | 1.09
RRIRMRPPRLPRPRPRPISLPRP | 0.0356
RRIRIRPPRLPRPRPRPSIDPRP | -0.342
RRIRSRPPRLPRPRPRPQKKPRP | -0.0597
RRIRNRPPRLPRPRPRPNLKPRP | -0.33
RRIRMRPPRLPRPRPRPQFCPRP | 0.0736
RRIRRRPPRLPRPRPRPRTVPRP | 0.693
RRIRARPPRLPRPRPRPSNTPRP | -0.31
RRIRRRPPRLPRPRPRPHHIPRP | -0.637

Sequence | shrunken log2 fold change
RRIRVRPPRLPRPRPRPTRLPRP | 0.568
RRIRLRPPRLPRPRPRPARTPRP | 0.468
RRIRNRPPRLPRPRPRPTGLPRP | 0.0817
RRIRHRPPRLPRPRPRPCQKPRP | -0.0102
RRIRRRPPRLPRPRPRPRSDPRP | 0.323
RRIRYRPPRLPRPRPRPFPGPRP | -0.253
RRIRQRPPRLPRPRPRPKWHPRP | 0.48
RRIRIRPPRLPRPRPRPRDKPRP | 0.115
RRIRDRPPRLPRPRPRPDDCPRP | -0.00963
RRIRKRPPRLPRPRPRPLDYPRP | -0.202
RRIRMRPPRLPRPRPRPMNSPRP | 0.0624
RRIRPRPPRLPRPRPRPWQGPRP | -0.00211
RRIRFRPPRLPRPRPRPGLHPRP | 0.159
RRIRSRPPRLPRPRPRPNGSPRP | -0.21
RRIRARPPRLPRPRPRPTNMPRP | -0.275
RRIRWRPPRLPRPRPRPYNTPRP | -0.162
RRIRWRPPRLPRPRPRPAKLPRP | 0.0566
RRIRCRPPRLPRPRPRPKPMPRP | -0.00253
RRIRDRPPRLPRPRPRPILRPRP | -0.0119
RRIRQRPPRLPRPRPRPNVLPRP | -0.0544
RRIRWRPPRLPRPRPRPMQPPRP | 0.185
RRIRCRPPRLPRPRPRPQHSPRP | -0.764
RRIRIRPPRLPRPRPRPAYNPRP | -0.111
RRIRRRPPRLPRPRPRPYYAPRP | -0.561
RRIRWRPPRLPRPRPRPFMQPRP | -0.261

Sequence | shrunken log2 fold change
RRIRYRPPRLPRPRPRPNLPPRP | -0.479
RRIRKRPPRLPRPRPRPWYVPRP | -0.958
RRIRERPPRLPRPRPRPYWYPRP | -1.83
RRIRQRPPRLPRPRPRPILGPRP | 0.0906
RRIRCRPPRLPRPRPRPTQFPRP | 0.167
RRIRARPPRLPRPRPRPINFPRP | 0.0601
RRIRNRPPRLPRPRPRPMPQPRP | -0.0321
RRIRIRPPRLPRPRPRPCSWPRP | -0.31
RRIRVRPPRLPRPRPRPSLDPRP | -0.0324
RRIRVRPPRLPRPRPRPQGWPRP | 0.522
RRIRQRPPRLPRPRPRPSKRPRP | -0.188
RRIRGRPPRLPRPRPRPDDRPRP | 0.814
RRIRFRPPRLPRPRPRPEYRPRP | -0.218
RRIRKRPPRLPRPRPRPSWVPRP | -0.0457
RRIRYRPPRLPRPRPRPVVSPRP | -0.595
RRIRFRPPRLPRPRPRPFAMPRP | -0.326
RRIRIRPPRLPRPRPRPWCHPRP | -0.122
RRIRLRPPRLPRPRPRPVNYPRP | -0.231
RRIRNRPPRLPRPRPRPSLCPRP | 0.0773
RRIRKRPPRLPRPRPRPAMPPRP | 0.788
RRIRTRPPRLPRPRPRPHEWPRP | 0.00742
RRIRIRPPRLPRPRPRPPPHPRP | 0.392
RRIRVRPPRLPRPRPRPENGPRP | -0.158
RRIRTRPPRLPRPRPRPDYTPRP | -0.606
RRIRCRPPRLPRPRPRPYANPRP | -0.0471
